Data on three molecules can be found in paper PMC6937325, “Tuning PFKFB3 Bisphosphatase Activity Through Allosteric Interference” (Scientific Reports, 2019).

Square brackets hold non-standard residues; d marks the D form. Ends that are not written are not given here.

The target of assay [1] is T1, human inducible phospho-fructokinase bisphosphatase isoform 3, PFKFB3 (human, UniProt Q16875 1-520, RED-NHS label).
T1 construct: human PFKFB3 (inducible bifunctional enzyme), GenBank AF056320.1; Plasmid from Prof; Yong-Hwan Lee; also called 6-Phosphofructo-2-kinase/fructose-2,6-biphosphatase 3; human inducible bifunctional enzyme; not shown: His tag, N-terminal, cleaved
Briefly: MST; Nanotemper microscale thermophoresis; compound in MST buffer mixed 1:1 with 100 nM RED-NHS labeled recombinant PFKFB3, incubated 20 min at room temperature. The conditions noted are these: both partners purified. (In general: Microscale thermophoresis detects binding through changes in fluorescence in a small temperature gradient.)

The target of assay [2] is T1, human inducible phospho-fructokinase …. Described as above. The settings on record: both partners purified. This is another data set of the same source.

T1 sequence (Q16875 whole entry, canonical isoform): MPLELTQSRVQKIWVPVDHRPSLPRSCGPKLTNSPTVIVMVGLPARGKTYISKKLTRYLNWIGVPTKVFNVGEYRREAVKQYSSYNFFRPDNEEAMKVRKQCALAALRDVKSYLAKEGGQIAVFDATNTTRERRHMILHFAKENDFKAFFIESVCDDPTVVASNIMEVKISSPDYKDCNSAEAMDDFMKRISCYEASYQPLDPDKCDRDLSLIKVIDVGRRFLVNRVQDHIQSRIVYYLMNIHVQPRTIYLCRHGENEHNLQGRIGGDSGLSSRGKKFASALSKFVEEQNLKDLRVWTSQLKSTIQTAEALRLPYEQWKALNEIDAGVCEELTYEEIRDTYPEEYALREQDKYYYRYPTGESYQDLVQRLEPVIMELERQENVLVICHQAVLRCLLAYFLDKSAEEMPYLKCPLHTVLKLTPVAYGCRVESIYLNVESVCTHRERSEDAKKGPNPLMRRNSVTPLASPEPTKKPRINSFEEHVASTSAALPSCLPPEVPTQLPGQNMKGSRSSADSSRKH

B1: peptide 5 (SFLLR-CONH2) (peptide)
peptide: SFLLR-NH2
notes: printed as SFLLR-CONH2; picked by virtual screening of ZINC libraries; also called compound 5; source: synthetic peptide
For the molecule B1, the dissociation constant (Kd) (commonly the free concentration of one partner at which half of the binding sites on the other are occupied at equilibrium, for simple one-to-one binding) in assay [1] is 44.4 µM.

B2: peptide 6 (wGy) (peptide)
chain: [dW]-Gly-[dY]
B2: the Kd in assay [2] was 2.79 µM.

B3: peptide 4 (YSGFLT) (peptide)
peptide: YSGFLT
notes: printed as YSGFLT; picked by virtual screening of ZINC libraries; also called compound 4; source: synthetic peptide
Turning to B3, in assay [1], the Kd was 18.3 µM.
